Experimental findings from patent US20210214440A1 (Janssen / Centocor, published 2021) are described below.

This test deals with T1, human CD8 on human pan T cells (human, UniProt P01732 22-235; P10966 22-210).
T1 construct: Native CD8 on the CD4-negative population of human pan T cells
Description: flow cytometry, 20 nM mAb on human pan T cells. Here is the method:
Secondary antibodies were A647-conjugated goat anti human IgG Fc antibody at 2 μg/mL, and A488-conjugated mouse anti-human CD4 at 1 μg/mL in staining buffer. Live cells were also gated based on OKT8 control mAb binding. Percent CD8 positive population was calculated by percentage of CD8-positive cell count/live cell count.

Numbering of substitutions follows the chain as printed.

T1 sequence (P01732 22-235, chain 1 of 2): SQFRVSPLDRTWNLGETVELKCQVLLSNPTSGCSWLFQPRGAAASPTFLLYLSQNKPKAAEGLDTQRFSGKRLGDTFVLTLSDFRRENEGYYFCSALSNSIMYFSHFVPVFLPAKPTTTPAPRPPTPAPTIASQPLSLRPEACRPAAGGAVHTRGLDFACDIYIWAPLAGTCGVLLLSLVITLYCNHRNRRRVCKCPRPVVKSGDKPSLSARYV
T1 sequence (P10966 22-210, chain 2 of 2): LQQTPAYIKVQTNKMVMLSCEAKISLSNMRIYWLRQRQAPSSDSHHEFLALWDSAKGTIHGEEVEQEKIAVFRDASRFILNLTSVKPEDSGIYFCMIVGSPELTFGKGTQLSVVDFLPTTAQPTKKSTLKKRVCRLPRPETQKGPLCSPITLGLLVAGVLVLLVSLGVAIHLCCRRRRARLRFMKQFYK

B1: CD8B271 (antibody, human IgG1, kappa, V domains shown)
VH: DVQLQESGPGLVAPSQSLSITCTVSGFSLSIYSIHWVRQPPGKGLEWLGMIWGGGDTDYNSALKSRLSISKDNSESQVFLKMNSLQTDDTAMYYCARNPHYYGGTYEYFDVWGTGTTVTVSS
VL: DIQMTQTTSSLSASLGDRVTISCSASQGISNYLNWYQQKPDGTVKLLIYDTSILYSGVPSRFSGSGSGTDYSLTISNLEPEDVATYYCQQYSNLPYTFGSGTKLEIKR
notes: full-length human IgG1, kappa
Turning to B1, the “Cell Binding to Human PanT Signal/Background (of CD4 negative population)” value amounted to 911.

B2: CD8B356 (antibody, human IgG1, kappa, V domains shown)
VH: DVQLQESGPGLVKPSQSLSLTCSVTGYSITSGYYWNWIRQFPGNKLEWMGYISYDGSNNYNPSLKNRISITRDTSKNQFFLKLNSVTTEDTATYYCVRNHGDAMDYWGQGTSVTVSS
VL: DIVLTQSQKFMSTTVGDRVSITCKASQNVGTAVAWYQQKPGQSPKLLIYSASYRYTGVPDRFTGSGSGTHFTLTISNMQSEDLADYFCQQYSSYLTFGSGTKLEIKR
notes: full-length human IgG1, kappa
B2: the “Cell Binding to Human PanT Signal/Background (of CD4 negative population)” value turned out to be 777.

B3: CD8B269 (antibody, human IgG1, kappa, V domains shown)
VH: B2 VH with Y106H, S112T, V113L
VL: DIVMTQSQKFMSTSVGDRVRVTCKASQNVGTDVAWYQQKPGQSPKALIYSASYRYSGVPDRFTGSGSGTDFTLTISDVQSEDLAEYFCQQYKSYPLTFGAGTKLELKR
notes: full-length human IgG1, kappa
Regarding B3, the “Cell Binding to Human PanT Signal/Background (of CD4 negative population)” value is 26.

B4: CD8B319 (antibody, human IgG1, kappa, V domains shown)
VH: QVQLKESGPELKKPGETVKISCKASGYSFTAYYMHWVKQSPEKSLEWIGEINPSAGGTTYNQKFKAKATLTVDKSSSTAFIQLKSLTSEDSAVYYCARWTNPFDYWGQGTTLTVSS
VL: B2 VL with L4M, M78I, S92N, S93N
notes: full-length human IgG1, kappa
Turning to B4, the “Cell Binding to Human PanT Signal/Background (of CD4 negative population)” value turned out to be 16.

B5: CD8B251 (antibody, human IgG1, kappa, V domains shown)
VH: QVQLKGSGPGLVQPSQSLSITCTVSGFSLTTYAVHWVRQSPGKGLEWLGVIWSGGSTDYNAAFISRLSISKDNSKSQVFFKMNSLQADDTAIYYCARHSYYHYNAMDNWGQGTSVTVSS
VL: DIKMTQSQKFMSTTVGDRVSITCKASQNVGTAVAWYQQKPGQSPKLLIYSASNRYTGVPDRFTGSGSGTDFTLTISNMQSEDLADYFCQQYSSYPFTFGSGTKLEIKR
notes: full-length human IgG1, kappa
As to B5, the “Cell Binding to Human PanT Signal/Background (of CD4 negative population)” value worked out at 37.

B6: CD8B310 (antibody, human IgG1, kappa, V domains shown)
VH: QVQLKESGPGLVAPSQSLSITCTVSGFSLTNYAVHWVRQSPGKGLEWLGVIWTDGSTDYNAGFISRLSISKDNSKSQVFFKMNSLQADDTAIYYCARNNGYFPAFFAYWGQGTTVTVSS
VL: DVLMTQTPLSLPVSLGDQASISCRSSQTIVHSNGNTYLEWYLQKPGQSPKLLMYKVSNRFSGVPDRFGGSGSGTDFTLKISRVEAEDLGVYYCFQGSHAPFTFGSGTKLEIKR
notes: full-length human IgG1, kappa
For the molecule B6, the “Cell Binding to Human PanT Signal/Background (of CD4 negative population)” value was found to be 29.

B7: CD8B182 (antibody, human IgG1, kappa, V domains shown)
VH: EVQLQQSGAALAKPGTSVKMSCKASGYTFTSYWMNWVRQRPGQGLEWIGAVNPTNYYTEYIQKFKDKAILTADKSSSTAYMHLSGLTSEDSAVYYCARSGLYNTNHLAWFAYWGQGTTVTVSS
VL: DIKMTQSPASLSASVGETVTITCRASENIHNYLAWYQQIQGKSPQLLVYNAKTLANGVPSRFSGSASGTQFSLTINSLQPEDFGSYYCQHFWTTPLTFGAGTKLELKR
notes: full-length human IgG1, kappa
With B7, the “Cell Binding to Human PanT Signal/Background (of CD4 negative population)” value worked out at 1490.

B8: CD8B268 (antibody, human IgG1, kappa, V domains shown)
VH: QVQLQQSGAELVKPGASVKLSCKASGYTFTVYTIHWVKQRSGQGLEWIGWFYPGSGNIKYNEKFKDKATLTADKSSHTVYMELSRLTSEDSAVYFCARHEDNHYYDGNSWFAYWGQGTLVTVSA
VL: DIQMTQSPASLSASVGQTVTITCRASGNIHNYLAWFQQKQGKSPQLLVYNAKTLADGVPSRFSGSGSGTQYSLKINSLQTEDFGNYYCQHFWNTPYTFGGGTKLEIKR
notes: full-length human IgG1, kappa
In the case of B8, the “Cell Binding to Human PanT Signal/Background (of CD4 negative population)” value was determined as 1170.

B9: CD8B350 (antibody, human IgG1, kappa, V domains shown)
VH: EVQLQQSGAELAKPGTSVKMSCKASGYTFAAYWINWLKQRPGQGLEWIGSINPSNGYTEYSQKFKDKAILTADKSSSTAYMQLSSLTSEDSAVYYCSRSGLYYTNHLAWCPYWGQGTTVTVSS
VL: B8 VL with Q3V, Q17E, F36Y, L46V, K52E, G57S, Y71F, T80P, T94S, Y96L
notes: full-length human IgG1, kappa
As to B9, the “Cell Binding to Human PanT Signal/Background (of CD4 negative population)” value was 537.

B10: CD8B273 (antibody, human IgG1, kappa, V domains shown)
VH: B8 VH with V31E, S55T, N57S, R85K
VL: B8 VL with Q17E, T80A, N85S, N93S, G100S
notes: full-length human IgG1, kappa
In the case of B10, the “Cell Binding to Human PanT Signal/Background (of CD4 negative population)” value was found to be 938.

B11: CD8B213 (antibody, human IgG1, kappa, V domains shown)
VH: EVQLQQSGPELVKPGDSMKMSCKASGYIFTDYYMDWVKQSHGKSLEWIGYIYPNNGITSYNQKFKGRATLTIDKSSSTAYMELHSLTSEDSAVYYCARSIYYDHGGGFPYWGQGTSVTVSS
VL: DIVLTQSQKFMSTSVGDRVSVTCKASQNVDKYVAWYQQKPGQSPKALIYSASYRYSGVPDRFTGSGSGTDFTLTISNVQSEDLAEYFCQQYNTYPSFGSGTKLEMKR
notes: full-length human IgG1, kappa
As to B11, the “Cell Binding to Human PanT Signal/Background (of CD4 negative population)” value is 827.

B12: CD8B361 (antibody, human IgG1, kappa, V domains shown)
VH: EVQLQQSGPELVKPGNSVKMSCKASGYTFTDYYMDWVKQSHGTSLEWIGYIYPNNGDTRYNQKFKDKATLTVDKSSSTAYMELHSLTSEDSAVFYCARSIYYDHGGGFPYWGQGTLVTVSA
VL: B11 VL with L4M, D30G, K31T, S76N, F87L, T93S, S96T, S99G, K102R, M105I
notes: full-length human IgG1, kappa
In the case of B12, the “Cell Binding to Human PanT Signal/Background (of CD4 negative population)” value worked out at 1050.

B13: CD8B347 (antibody, human IgG1, kappa)
heavy: not shown
light: DIQMTQSPASLSASVGETVTITCRASGNIHNYLAWYQQKQGKSPQLLVFNAETLADGVPSRFSGSGSGTQFSLKINSLQPEDFGTYYCQHFWNNPLTLGAGTKLELKRTVAAPSVFIFPPSDEQLKSGTASVVCLLNNFYPREAKVQWKVDNALQSGNSQESVTEQDSKDSTYSLSSTLTLSKADYEKHKVYACEVTHQGLSSPVTKSFNRGEC
notes: full-length human IgG1, kappa
As to B13, the “Cell Binding to Human PanT Signal/Background (of CD4 negative population)” value was 1200.

B14: CD8B240 (antibody, human IgG1, kappa)
heavy: not shown
light: DIVMTQSPATLSVTPGDRVSLSCRASQSISDFLHWYQQKSHESPRLLIKYASQSISGIPSRFSGSGSGSDFTLTINSVEPEDVGVYYCQNGHSFPYTFGSGTKLEIKRTVAAPSVFIFPPSDEQLKSGTASVVCLLNNFYPREAKVQWKVDNALQSGNSQESVTEQDSKDSTYSLSSTLTLSKADYEKHKVYACEVTHQGLSSPVTKSFNRGEC
notes: full-length human IgG1, kappa
For the molecule B14, the “Cell Binding to Human PanT Signal/Background (of CD4 negative population)” value is 1310.

B15: CD8B191 (antibody, human IgG1, kappa)
heavy: not shown
light: B14 light with M4L
notes: full-length human IgG1, kappa
On to B15, for which the “Cell Binding to Human PanT Signal/Background (of CD4 negative population)” value came to 2440.

B16: CD8B364 (antibody, human IgG1, kappa, V domains shown)
VH: QVQLQQPGAELVKPGASVKLSCKASGYTFTSYWMHWVNRRPGQGLEWIGEINPSNGDSYYNEKFKRKATLTVDISSSTAYMQLSSLTSEDSAVYYCTRSMYYDGRAGAYWGQGTTVTVSS
VL: DIVLTQSPASLSVATGEKVTIRCITSTDIDDDMNWYQQKPGEPPKLLISEGNTLRPGVPSRFSSSGYGTDFVFTIENTLSEDVADYYCLQSDNMPLTFGAGTKLELKR
notes: full-length human IgG1, kappa
Turning to B16, the “Cell Binding to Human PanT Signal/Background (of CD4 negative population)” value worked out at 1560.

B17: CD8B200 (antibody, human IgG1, kappa, V domains shown)
VH: EVQLQQSGAELVKPGASVKLSCKASGYTFTNYWIHWVKQRPGQGLEWIGNIDPSDSETHYNQKFKDKATLTVDKSSSTAYMQLISLTSEDSAVYYCASGLTGTGYYWGQGTTLTVSS
VL: DIQMTQTTSSLSASLGDRVTITCRASQDISPYLNWYQQKPEGTIKLLIYYTSKLHSGVPSRFSGSGSGTDYSLTISNLEQEDIATYFCQQDNTLPYTFGSGTKLELKR
notes: full-length human IgG1, kappa
Consider B17, for which the “Cell Binding to Human PanT Signal/Background (of CD4 negative population)” value was found to be 1990.

B18: CD8B246 (antibody, human IgG1, kappa, V domains shown)
VH: QVQLKESGPGILKPSQTLSLTCSFSGFSLSTSGMNVGWIRQPSGKGLEWLAHIWWDDDKYYNPSLKSQLTISKDTSRNQVFLKITSVDTADTATYYCARRGNYGNYEFAYWGQGTTLTVSS
VL: B17 VL with T22S, S30R, P31N, E41D, I44V, Y50H, K53R, D91G, Y96W, S100A
notes: full-length human IgG1, kappa
As for B18, the “Cell Binding to Human PanT Signal/Background (of CD4 negative population)” value stood at 1110.

B19: CD8B270 (antibody, human IgG1, kappa, V domains shown)
VH: B17 VH with E1Q, S7P, K19M, I34M, I84S
VL: B17 VL with S30R, Y50F
notes: full-length human IgG1, kappa
As to B19, the “Cell Binding to Human PanT Signal/Background (of CD4 negative population)” value is 2500.

B20: CD8B304 (antibody, human IgG1, kappa, V domains shown)
VH: B18 VH with Q3T, L117V
VL: DIQMTQTTSSLSASLGDRVTISCRASQDIRNYLNWYQQKPDGTVKLLIYHTSRLHSGVPSRFSGSGSGTDYSLTISNLDQEDIATYFCQQGNTLPWTFGAGTKLELKR
notes: full-length human IgG1, kappa
As for B20, the “Cell Binding to Human PanT Signal/Background (of CD4 negative population)” value was 923.

B21: CD8B303 (antibody, human IgG1, kappa, V domains shown)
VH: QVQLKESGPGLVAPSQSLSITCTVSGFSLSIYSIHWVRQPPGKGLEWLGMIWGGGSTDYNSTLNSRLSIIKDNSKSQVFLKMNSLQTDDTAMYYCARNPHHYGGSTGAMDYWGQGTTVTVSS
VL: DVQMIQSPSSLSASLGGTVTITCKASQDIKKYMAWYQHKPGKGPRLLIHYTSSLQPGIPSRFSGSGSGRDYYFSISNLEPEDIATYFCLQYDNLFTFGSGTKLELKR
notes: full-length human IgG1, kappa
As to B21, the “Cell Binding to Human PanT Signal/Background (of CD4 negative population)” value was 1180.

B22: CD8B312 (antibody, human IgG1, kappa, V domains shown)
VH: QVQLQQPGADLVKPGASVKLSCKASGYTFTSFWMHWVKQRPGQGLEWIGNVDPSDSQTHYNQKFKDKATLTVDKSSNTAYMQLSSLTSEDSAVYYCARSTYYRYDGPFTYWGQGTTVTVSS
VL: DIVLTQSPATLSVTPGDSVSLSCRASQSINNNLHWYQQKSHESPRLLIKYTSQSISGIPSRFSGSGSGPDFTLSINSVETEDFGMYFCQQSNSWPLTFGGGTKLEIKR
notes: full-length human IgG1, kappa
As to B22, the “Cell Binding to Human PanT Signal/Background (of CD4 negative population)” value came out at 1090.
